Reference: paper doi:10.1101/2020.06.19.161133, “Structure of the yeast Nup84-Nup133 complex details flexibility and reveals universal conservation of the membrane anchoring ALPS motif” (bioRxiv, 2020)

Key:
Settings in all cases: both partners purified
[1] = biological target: T1, Nup84 (full-length, S. cerevisiae) (S. cerevisiae, UniProt P52891); assay: crystal structure; Nup84-Nup133CTD with VHH-SAN8 and VHH-SAN9, 7.4 Å; same crystal form and conditions as the singly bound complex
T1 construct: Nup84, S. cerevisiae, full length; The tag is 3C-cleavable; also called scNup84
T1 sequence (P52891 whole entry): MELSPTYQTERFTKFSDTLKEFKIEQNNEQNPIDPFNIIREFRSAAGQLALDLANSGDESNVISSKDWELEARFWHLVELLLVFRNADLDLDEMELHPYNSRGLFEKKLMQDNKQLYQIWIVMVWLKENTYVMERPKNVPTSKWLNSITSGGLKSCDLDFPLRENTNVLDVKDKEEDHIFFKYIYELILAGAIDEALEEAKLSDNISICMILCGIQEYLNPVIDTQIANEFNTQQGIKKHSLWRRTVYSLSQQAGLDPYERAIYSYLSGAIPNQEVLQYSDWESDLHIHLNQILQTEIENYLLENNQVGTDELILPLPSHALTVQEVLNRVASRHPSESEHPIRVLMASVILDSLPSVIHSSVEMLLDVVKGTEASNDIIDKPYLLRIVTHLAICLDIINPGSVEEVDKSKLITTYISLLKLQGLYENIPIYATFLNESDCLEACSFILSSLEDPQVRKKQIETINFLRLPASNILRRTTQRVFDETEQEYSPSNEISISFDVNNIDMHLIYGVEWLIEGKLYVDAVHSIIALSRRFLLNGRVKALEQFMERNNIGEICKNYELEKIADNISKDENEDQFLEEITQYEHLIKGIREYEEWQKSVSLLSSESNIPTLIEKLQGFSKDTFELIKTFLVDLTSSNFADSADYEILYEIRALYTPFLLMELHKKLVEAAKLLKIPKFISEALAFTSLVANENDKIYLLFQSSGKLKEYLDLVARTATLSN

[2] = biological target: T2, Nup84-Nup133CTD heterodimeric complex (Saccharomyces cerevisiae (strain ATCC …, UniProt P52891;P36161)); assay: as above
T2 construct: Nup84, S. cerevisiae, full length; source: E. coli LOBSTR-RIL(DE3), co-expressed from a bicistronic vector, purified (Ni Sepharose, SP Sepharose, Superdex 200)
T2 sequence (P52891 whole entry, chain 1 of 2): as the sequence (P52891 whole entry) above
T2 sequence (P36161 521-1157, chain 2 of 2): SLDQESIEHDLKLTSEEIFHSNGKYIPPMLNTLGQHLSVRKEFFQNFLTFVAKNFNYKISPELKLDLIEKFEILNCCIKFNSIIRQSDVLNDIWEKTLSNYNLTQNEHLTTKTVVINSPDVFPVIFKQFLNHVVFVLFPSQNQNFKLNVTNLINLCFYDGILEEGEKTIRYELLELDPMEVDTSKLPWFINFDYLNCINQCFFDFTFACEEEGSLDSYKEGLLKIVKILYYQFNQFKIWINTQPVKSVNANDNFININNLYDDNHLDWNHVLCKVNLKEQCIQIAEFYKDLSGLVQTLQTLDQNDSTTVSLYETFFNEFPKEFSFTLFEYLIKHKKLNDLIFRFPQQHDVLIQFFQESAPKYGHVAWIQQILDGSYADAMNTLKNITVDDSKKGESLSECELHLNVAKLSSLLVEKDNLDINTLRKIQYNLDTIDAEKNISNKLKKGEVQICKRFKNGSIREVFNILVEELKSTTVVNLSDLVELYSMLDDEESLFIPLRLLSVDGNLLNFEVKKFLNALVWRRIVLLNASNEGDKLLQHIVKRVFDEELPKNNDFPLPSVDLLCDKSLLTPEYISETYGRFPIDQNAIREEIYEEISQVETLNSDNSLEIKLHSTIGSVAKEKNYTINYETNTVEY

[3] = biological target: T1, Nup84 (full-length, S. cerevisiae); assay: crystal structure; Nup84-Nup133CTD-VHH-SAN8, 6.4 Å, SAD with a polyoxotungstate derivative; crystals at 18 °C, PEG 8,000, ethylene glycol, imidazole/MES pH 6.5
[4] = biological target: T2, Nup84-Nup133CTD heterodimeric complex; assay: as above
[5] = biological target: T3, Nup133 N-terminal domain (Nup133NTD, residues 55-481) (S. cerevisiae, UniProt P36161); assay: crystal structure; Nup133NTD-VHH-SAN5, 2.8 Å, molecular replacement; six copies in the asymmetric unit; crystals at 18 °C, PEG MME 2,000, potassium chloride, Tris/HCl pH 8
T3 construct: Nup133, S. cerevisiae, N-terminal beta-propeller, residues 55-481; The tag is 3C-cleavable; also called scNup133NTD; WT-Nup133NTD; source: E. coli LOBSTR-RIL(DE3), purified (Ni Sepharose, Superdex 75)
T3 sequence (P36161 55-481): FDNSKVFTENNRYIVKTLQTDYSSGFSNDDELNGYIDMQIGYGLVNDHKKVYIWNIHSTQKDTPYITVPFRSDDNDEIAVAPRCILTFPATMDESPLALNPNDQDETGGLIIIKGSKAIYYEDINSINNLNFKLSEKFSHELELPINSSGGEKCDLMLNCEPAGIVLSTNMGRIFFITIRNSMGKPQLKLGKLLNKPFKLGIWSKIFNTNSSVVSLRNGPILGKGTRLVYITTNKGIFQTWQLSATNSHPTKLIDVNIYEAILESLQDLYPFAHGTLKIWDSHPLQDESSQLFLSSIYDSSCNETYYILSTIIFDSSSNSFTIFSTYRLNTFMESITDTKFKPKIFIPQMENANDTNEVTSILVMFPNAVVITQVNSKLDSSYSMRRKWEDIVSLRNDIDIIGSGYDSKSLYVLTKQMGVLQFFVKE

[6] = biological target: T3, Nup133 N-terminal domain (Nup133NTD, …); assay: crystal structure; Nup133NTD-VHH-SAN4, 2.1 Å, molecular replacement; crystals at 18 °C, PEG 3,350, ammonium sulfate, Bis-Tris/HCl pH 5.5

B1: VHH-SAN9 (VHH)
VHH: QVQLVESGGGSVQAGGSLRLSCAVSGGTLSTLAMGWFRQAPGQEREFVARIGWTNGDTGYADSVKGRFTISRDNVKNTVYLQMNNLKPEDTALYYCATRRPYGSTLYPPNTESAHDNWGQGTQVTVSS
notes: structure deposited as PDB 6X03 (the model is a nanobody without CDRs placed as a rigid body); Selected by phage display from an alpaca immunised with the full-length Y complex; also called VHH9; nanobody VHH-SAN9; source: E. coli, purified (Ni Sepharose, tag cut with SEN-p protease, Superdex 75); not shown: 14xHis bdSUMO, N-terminal, cleaved
B1: binds [1]; binds [2].

B2: VHH-SAN8 (VHH)
VHH: QLQLVETGGGLVQAGGSLRLSCVASGRTFTSYAMGWFRQAPGKEREFVAAISRLASGTDYADSVKGRFTISRNNDKNTVYLQMNNLIPEDTAVYYCAALQALRFSLPIAMATMKNGRADSWGQGTQVTVSS
notes: structure deposited as PDB 6X02 and 6X03 (the model is a generic nanobody without CDRs, PDB 1BZQ, placed as a rigid body); Selected by phage display from an alpaca immunised with the full-length Y complex, panned against Nup84; also called VHH8; nanobody VHH-SAN8; source: E. coli, purified (Ni Sepharose, tag cut with SEN-p protease, Superdex 75); not shown: 14xHis bdSUMO, N-terminal, cleaved
B2: binds [3]; binds [4].

B3: VHH-SAN5 (VHH)
VHH: QVQLVESGGGLVQAGGSLRLSCAASGSIGSLDAMAWYRRAPGKQRERVASISRYGTYYVDSVKGRFTISRDNAKNTVYLQMNSLKPEDTGVYYCKGVMEVGGVIDEYWGQGTQVTVSS
notes: structure deposited as PDB 6X04 (2.8 Å, nanobody chains); Selected by phage display from an alpaca immunised with the full-length Y complex, panned against Nup133NTD; also called nanobody VHH-SAN5; source: E. coli, purified (Ni Sepharose, tag cut with SEN-p protease, Superdex 75); not shown: 14xHis bdSUMO, N-terminal, cleaved
B3: binds [5].

B4: VHH-SAN4 (VHH)
VHH: QLQLVESGGGSVQAGGSLTLSCTASESISKRIHGIGWFRQRRGEQREEIAYITTGGRPNLGDSVKDRFTISRDKSNGTVYLQMNSLKPEDTAVYYCHGRGRWWGTEGRLDYWGQGTQVTVSS
notes: structure deposited as PDB 6X05 (2.1 Å, nanobody chain); Selected by phage display from an alpaca immunised with the full-length Y complex, panned against Nup133NTD; also called nanobody VHH-SAN4; source: E. coli, purified (Ni Sepharose, tag cut with SEN-p protease, Superdex 75); not shown: 14xHis bdSUMO, N-terminal, cleaved
B4: binds [6].
